Laboratory results as given in publication PMC6908506, “Development of Foot-and-Mouth Disease Virus-Neutralizing Monoclonal Antibodies Derived From Plasmablasts of Infected Cattle and Their Germline Gene Usage” (Frontiers in Immunology, 2019).
Where a chain is given by its changes, count along the chain named.

B1: C5 (antibody, V domains shown)
VH: QVQLRESGPSLVKPSQTLSLTCTVSGFSLSSYGVGWVRQAPGRALEFLADIYSDGSTTYNLALKSRLSIMKDNSKSEVSLSLSSVTTEDTATYYCAKSSRGVGWGDGLHYNENDAGAWGQGLLVTVSS
VL: QAVLSQPPSVSGSLGQTVTIPCTGSSNNIGILGVSWYQQIPGSAPRTLVYNNNKRPSGVADRFSGTKSGNTGTLTIASLQAEDEADYYCASADPNFGGGTRVTVL
B2: B73 (antibody, V domains shown)
VH: QVQLRESGPSLVKPSQTLSLTCTVSGFSLSSYDVGWVRQAPGKALECLGSITNRGKTGYNPALKSRLSITKDNSKSQVSLSLNSVTTEDTATYYCAKLNSGGYGIDGNGCYAFGSNYNLYVDAWGQGLLITVSS
VL: QAVLTQPSSVSGSLGQRVSITCSGSSSNLGTYNVGWYQQVPGSGLRTIIYGSSSRPSGVPDRFSGSRSGNTATLTISSLQAEDEADYFCTAYDHSISTAVSGSGTTLTVL
B3: B66 (antibody, V domains shown)
VH: QVQLRESGPSLVKPSQTLSLTCTVSGFSLTTYSVNWVRQTPGKALECLGGITSGGNAYYQPSLKSRLSITKDNSKNQVSLSINSATPEDTATYYCGKLSGTGVCEGGCACGHDPHVDAWGQGVLVTVSS
VL: QAVLTQPSSVSGSLGQRISITCSGSSNNVGLYNVGWYQQIPGSGLRTIIYAGDRRPSGVPDRFSGSEFGDTATLTISSLQAEDEADYFCVTYDSTISAAVFGSGTTLTVL
B4: B77 (antibody, V domains shown)
VH: QVQLRESGPSLVKPSQTLSLTCTISGFSLSSYTIGWVRQAPGKALEWIGDMSNGGMPYYNPALKSRLSITKHNSKSQVRLSVSSVTPEDTATYYCAKSRYTGDGSIGLYGVDAWGQGLLITVSS
VL: QAVLTQPSSVSGSLGQRVSITCSGTYSNVGTGNYVSWFQQIPGSAPRTLIYSVTNRASGVPDRFSGSRSGHTATLTISSLQAEDEADYFCLSWQSGNTALFGSGTTLTVL
B5: A19 (antibody, V domains shown)
VH: QVQLRESGPSLVKPSQTLSLTCTTSGFSLSSYAVGWVRQAPGKALEWVGGISSGGKTCPSPALKTRLSITKLNSRGQVSLSVGSVSTEDTATYYCVKFFSGGWTYSCYGIDFGSVDAWGQGVLVTVSS
VL: QAVLTQPSSVSGSLGQRVSITCSGSSNNIGSYGVGWYQQVPGSGLRTIIYGSTSRPSGVPDRFSGSKSGNTATLTISSLQAEDEADYFCAAGDDSSSSVDVFGSGTTLTVL
B6: C4 (antibody, V domains shown)
VH: QVQLRESGPSLVKPSQTLFLTCTVSGFSLTSYSVNWVRQTPGKMLECLGGIATSGSTGYNPVLKSRLRITKDNSKSQVSLSVSNVTPEDTATYYCAKWSSRGGYDCGVHSSDYSYLDAWGQGLLVTVSS
VL: QAVLTQPSSVSASLGQRVSITCSGSSSNIGRYGATWYQQVPGSGLRTIIYGSSRRPSGVPDRFSGSKSGNTVTLTISSLQPEDEADYFCAAYDISTNAVFGSGTTLTLL
B7: B82 (antibody, V domains shown)
VH: QVQLRESGPSLVKPSQTLSLTCTVSGFSLSNYAVGWVRQAPGKALEYLGGVRLRGRPDYNPALESRLSITKDNSKSQVSLSVSSVTLEDTATYYCAKSSSGLWDGGCCGGSTSCYVDSWGQGLLVTVSS
VL: QAVLTQPSSVSGSLGQRVSITCSGSSSNIGTYTVGWYQQVPGSGLRTIIYSNNNRPSGVPDRFSGSKSGNTATLTISSLQAEDEADYFCVTYESSISTALFGRGTTLTVL
B8: E18 (antibody, V domains shown)
VH: QVQLRESGPSLVTPSQTLSLTCAVSGGSLSTHDVVWVRQAPGRALEWVGGISSRGTTYYNPALKSRLSITQDLSKNQVSLSVGSVTPDDTATYYCAKDLCGGRINGCYNDGYYYSLRVDAWGQGLLVTVSS
VL: QAVLAQPSSVSGSLGQRVSITCSGSSNNIGSYGVGWYQQVPGSGLRTIIYGSSNRPSGVPDRFSGSKSGNTATLTISSLQAEDEADYFCAASDYSSNTVVFASGTTLTVL
B9: F28 (antibody, V domains shown)
VH: QVQLRESGPSLVKPSQTLSLTCTVSGFSLNTYSVYWVRQVPGKALECIGGISSREARGYNPALKPRLSITKDNSKSQVSLSLSSVTTDDTATYYCAKAARGYAFTCGGISSHSDHYVDAWGQGLLVTVSS
VL: QAVLTQPSSVSGSLGQRVSISCSGSSSNVGTGNHVSWFQQIPGSAPRTLIYGATRRLSGVPDRFSGSRSGNTATLTISSLQAEDEADYFCASWQSDSTTVFGSGTTLTVL
B10: B74 (antibody)
VH: QVQLRESGPGLVKPSQTLSLTCTASGFSLSIKAVGWVRQAPGKALEWLGSIDTGGNTGYNPGLKSRLSITKDNSKSQVSLSLSSVTTEDSATYYCATVHQETKKSCSDGYYYRNECGAYGDCTVGNCCCSYASDYCNWCDFRRVTPTYTYEHHVEAWGQGLLVTVSS
VL: QAVLTQPSSVSGSLGQRVSITCSGSSGNVGNGYVSWYQLIPGSAPRTLIYGDTTRVSGVPDRFSGSRSGNTATLTISSLQAEDEADYFCASAEDSSNNAVFGSGTTLTVL
B11: E50 (antibody)
VH: QVQLRESGPSLVKPSQTLSLTCTASGFSLSDKAVGWVRQAPGKALEWLGSVDTSGSTGYNPGLESRLIITKDNSKSRVSLSVHSVTSEDSATYYCVTVHQKSRDEKSCPDGYIDGAGCKYGWPCSDQDCCVCSSCVYGYSGMNCVPARYSESYEWNVEAWGQGLLVTVSS
VL: B10 VL with G27T, V56A, F88S, N97S
B12: B83 (antibody)
VH: QVQLRESGPSLVKPSQTLSLTCTASGFSLSDKAVGWVRQAPGKALEWLGSIDTGGSTGYNPGLKSRLSITKDTSKTQVSLSVSSVTTEDSATYYCTNVHQKTTTERSCPDLGYKYECGNNCCWYSSCRGCIQGTYTSTYNFYVHAWGQGLRVTVSS
VL: B10 VL with G27S, A44G, T54S, V56A, A92T, N97S, A99V
B13: F103 (antibody)
VH: QVQLRESGPSLVKPSQTLSLTCTASGFSLSDKAVGWVRQAPGKALEWLGSIDTGGNSGYNPGLKSRLSITKDNSKSQASLSVSSVITGDSATYYCAIVHQETVRKTSGSDAYTCPDGCVLSPACSRERRCLCGTWPRDYCVDHIQSSTYNFYVEAWGQGLLVTVSS
VL: B10 VL with G12E, S25I, G27S, N28S, T54S, V56A, E93D, D94G, N97S, V100I
B14: E34 (antibody, V domains shown)
VH: QVQLRESGPSLVKPSQTLSLTCTVSGFSLNDYNVGWVRQAPGKALECLGGYKADGSTNYNSALKSRLSITKDSSKKQVSLSLSSVTTEDTATYYCAKCPSRWGCDYCDNYDFWGQGLLVTVSS
VL: B10 VL with G27S, N28D, N31K, I40M, A44G, T54S, V56I, E93D, N97S
B15: E54 (antibody)
VH: QVHLRESGPSLVKPSQTLSLTCTASGFSLSDRAVGWVRQAPGKALEWLGSIDTGGTTGYNPGLKSRLRITKDNSKSQVSLSVSTVTTDDSATYYCGAVYQTTETKTTCPEGYSNTGDCDDDCCCWGSDCSRYARWKRYRGGWFSSDYIVTEVYEFHVDAWGQGLLVSVSS
VL: B10 VL with G27S, A44T, T54S, R55P, V56A, S77I, L79F, N97S, A99V
B16: A35 (antibody, V domains shown)
VH: QVQLRESGPSLVKPSQTLSLTCTVSGFSLSSNGVIWVRQAPGKALEWLGGICGGGSTSFNPSLKSRLTITKDNSKNQVSLSVRSVTPEDTATYYCARSCGSYRDAWYDCASDGYRYHNYVDAW
VL: QAVLTQPSSVSGSLGQRVSITCSGSNNNIGSYAVGWYQQVPGSGLRTIIYGSTIRPSGVPDRFSGSKSRSTATLTISSLQAEDEADYFCATADYSSSTVVFGSGTTLTVL
B17: B57 (antibody, V domains shown)
VH: QVQLRESGPSLVKPSQTLSLTCTVSGFSLSGYAVTWVRRAPGQALECLGGISRGGLTNNNPALRSRVSITKDDSKSQVSLSVSTVTPEDTATYYCVRLGATKFGDYGCYGYGLYVDTWGQGLPVTVSS
VL: QAVLTQPSSVSGSLGQRVSITCSGSSSNIGRHGVSWYQQVPGSGLRTIIYSGNSRPSGVPDRFSGSKSGNTATLTISSLLAEDEADYFCAADDIVSRTTFFGSVTTLTVL
B18: F169 (antibody, V domains shown)
VH: QVQLRESGPSLVKPSQTLSLTCTVSGFSLSTYGVAWVRQAPGKALEWIGGISGRGSGSEYYNPPLQSRLSITKDTSRSQVFLSVRTVAPEDTATYYCVKCIDSWCNYDDSGDIDAWGQGLLVTVSS
VL: QAVLTQPSSVSGSLGQRVSITCSGSTSNIGKCDVGWYQRVPESGLRTIIYGNSKRPSGVPDRFSGSKSGTVATLTISSLQAEDEAEYFCATGDYSLRTAVFGSGTTLIVL
B19: F128 (antibody, V domains shown)
VH: QVQLRESGPSLVKPSQTLSLTCTVSGFSLGTYTVTWVRQAPGKALEWVGEISGGGDTDYNPALKSRLSITKHNSKSQVSLSVSSVTPEDTATYYCARCYSTCGCGLSCTSEDSYYVNAWGQGLLVTVSS
VL: QAVLTQPSSVSGSLGQRVSITCSGSSSNIGSYNVGWYQQVPGSGLTTIIYGTNNRPSGVPDRFSGSKSGNTATLTISSLRAEDEADYFCVTYDSTSSTIFGTGTTLTVL
B20: C9 (antibody, V domains shown)
VH: QVQLRESGPSPVKPSQTLSLTCTVSGFSLSSYAVAWVRQAPGKALEWVAGISGGGSTSYNAALKSRLRITKDNSKSQVALSLSSVTSEDTATYYCVKCANDYGSYFCYNYDYGYDFYVDAWGQGLLVTVSS
VL: QAVLTQPSSVSGSLGQRVSITCAGSSSNIGTYSVGWYQQVPGSGLTTIIYETTGRPKGVPDRFSGSKSGNTATLTITSLQAEDEADYFCVTYELGSGAVFGSGTTLTVL

Biological target: FMDV O/Mya/98 146S antigen (Foot-and-mouth disease virus serotype …, UniProt G8JKC2, strain)
Assay: cell-based or functional assay

In order of rising “virus neutralizing test on BHK-21 cells, IC50” value:
1. B8  0.78 µg/mL
2. B19  0.98 µg/mL
3. B16  1.43 µg/mL
4. B20  1.82 µg/mL
5. B17  2.6 µg/mL
6. B6  2.86 µg/mL
7. B3  3.13 µg/mL
8. B14  3.13 µg/mL
9. B2  3.28 µg/mL
10. B9  3.33 µg/mL
11. B15  3.65 µg/mL
12. B4  3.91 µg/mL
13. B7  4.17 µg/mL
14. B1  4.69 µg/mL
15. B18  5.56 µg/mL
16. B13  6.22 µg/mL
17. B10  7.81 µg/mL
18. B11  11.5 µg/mL
19. B12  12.2 µg/mL
20. B5  17.9 µg/mL
